Test results taken from patent US20240369575A1 (Genentech, published 2024).
Read-outs that look alike come from different tables or passages of the source.

Legend:
[1] = target: RIP3; assay: IP from HT29 WT or RIP1 KO cells with or without TBZ; western blot RIP3
[2] = target: T1, RIP2 (Homo sapiens (Human), UniProt O43353 1-540); assay: immunoprecipitation from cell lysates in 6 M urea buffer, western blot
T1 construct: also called RIPK2

[3] = target: T2, TRAF2 (UniProt Q12933 2-501); assay: as above
T2 sequence (looked up): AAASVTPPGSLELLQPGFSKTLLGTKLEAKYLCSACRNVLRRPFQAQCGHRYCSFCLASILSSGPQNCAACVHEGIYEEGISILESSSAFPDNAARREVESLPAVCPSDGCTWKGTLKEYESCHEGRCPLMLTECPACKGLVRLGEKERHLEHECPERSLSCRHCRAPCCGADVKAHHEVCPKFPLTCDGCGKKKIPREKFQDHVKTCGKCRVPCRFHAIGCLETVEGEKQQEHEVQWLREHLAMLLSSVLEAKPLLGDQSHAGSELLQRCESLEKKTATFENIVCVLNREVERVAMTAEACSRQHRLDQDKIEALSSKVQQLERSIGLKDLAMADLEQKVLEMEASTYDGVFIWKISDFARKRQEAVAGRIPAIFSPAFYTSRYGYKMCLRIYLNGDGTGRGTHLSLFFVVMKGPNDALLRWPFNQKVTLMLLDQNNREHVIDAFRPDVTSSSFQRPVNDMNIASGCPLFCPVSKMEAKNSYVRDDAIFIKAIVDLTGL

[4] = target: T3, RIP2 modified by mixed and/or branched K63-linked and linear ubiquitin chains (UniProt P0CG48 1-76); assay: IP from THP1 cells untreated or treated with MDP (1 ug/ml, 30 min), 6 M urea lysis; western blot RIP2
T3 construct: mature; also called modified RIP2; K63- and linear chain-ubiquitinated RIP2
T3 sequence (chain, as listed by the source limits assumed, chain 1 of 2, other chains not shown): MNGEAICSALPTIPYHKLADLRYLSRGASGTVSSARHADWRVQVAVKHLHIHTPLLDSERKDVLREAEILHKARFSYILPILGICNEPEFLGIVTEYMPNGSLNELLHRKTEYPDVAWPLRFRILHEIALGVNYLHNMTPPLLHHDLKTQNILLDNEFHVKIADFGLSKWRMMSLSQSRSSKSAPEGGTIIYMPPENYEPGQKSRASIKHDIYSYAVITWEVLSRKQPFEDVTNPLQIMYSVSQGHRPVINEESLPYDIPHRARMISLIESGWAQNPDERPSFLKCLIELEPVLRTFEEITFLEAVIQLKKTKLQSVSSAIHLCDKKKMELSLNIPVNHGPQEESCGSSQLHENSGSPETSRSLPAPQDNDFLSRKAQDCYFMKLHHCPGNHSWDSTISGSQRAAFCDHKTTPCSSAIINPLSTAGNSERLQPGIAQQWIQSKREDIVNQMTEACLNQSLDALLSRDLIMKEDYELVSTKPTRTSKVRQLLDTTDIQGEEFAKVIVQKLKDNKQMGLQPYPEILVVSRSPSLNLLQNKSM

[5] = target: T4, c-IAP1 (UniProt Q13490 1-618); assay: IP from THP1 cells with or without MDP (1 ug/ml, 30 min), 6 M urea lysis; western blot c-IAP1
T4 sequence (Q13490 whole entry): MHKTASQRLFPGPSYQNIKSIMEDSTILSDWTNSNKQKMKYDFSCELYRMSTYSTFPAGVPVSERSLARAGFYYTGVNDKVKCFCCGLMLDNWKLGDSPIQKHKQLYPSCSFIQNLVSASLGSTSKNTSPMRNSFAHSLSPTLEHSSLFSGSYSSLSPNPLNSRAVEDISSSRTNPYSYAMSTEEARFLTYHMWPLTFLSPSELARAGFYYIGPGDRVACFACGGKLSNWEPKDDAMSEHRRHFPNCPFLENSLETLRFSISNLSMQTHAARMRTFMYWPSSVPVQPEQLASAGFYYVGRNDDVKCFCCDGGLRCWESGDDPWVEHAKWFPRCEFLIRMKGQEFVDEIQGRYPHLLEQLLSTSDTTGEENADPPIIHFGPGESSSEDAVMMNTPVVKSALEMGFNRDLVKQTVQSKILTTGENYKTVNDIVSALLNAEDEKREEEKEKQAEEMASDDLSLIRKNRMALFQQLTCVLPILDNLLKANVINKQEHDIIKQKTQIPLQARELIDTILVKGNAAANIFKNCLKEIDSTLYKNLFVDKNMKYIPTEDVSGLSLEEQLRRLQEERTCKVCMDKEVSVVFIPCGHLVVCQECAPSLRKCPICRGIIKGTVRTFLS

[6] = target: T5, XIAP (UniProt P98170 1-497); assay: IP from THP1 cells with or without MDP (1 ug/ml, 30 min), 6 M urea lysis; western blot XIAP (label cut to XIA on the sheet)
T5 sequence (P98170 whole entry): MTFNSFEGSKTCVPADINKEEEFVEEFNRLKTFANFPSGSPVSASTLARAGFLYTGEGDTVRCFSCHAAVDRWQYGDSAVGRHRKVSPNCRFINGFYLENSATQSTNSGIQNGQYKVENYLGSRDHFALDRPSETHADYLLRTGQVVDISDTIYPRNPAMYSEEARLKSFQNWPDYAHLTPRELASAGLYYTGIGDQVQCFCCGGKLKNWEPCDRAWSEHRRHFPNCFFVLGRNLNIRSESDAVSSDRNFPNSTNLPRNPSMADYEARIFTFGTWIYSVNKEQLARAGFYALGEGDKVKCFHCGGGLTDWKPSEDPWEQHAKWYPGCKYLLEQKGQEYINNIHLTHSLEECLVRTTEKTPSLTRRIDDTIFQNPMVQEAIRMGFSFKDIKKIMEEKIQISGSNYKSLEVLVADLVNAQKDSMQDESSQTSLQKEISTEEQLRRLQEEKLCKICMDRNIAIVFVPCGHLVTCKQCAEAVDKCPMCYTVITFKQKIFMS

[7] = target: RIP3; assay: IP from HT29 WT or RIP1 KO cells with or without TBZ; western blot RIP3; remark: listed apart in the source
[8] = target: T5, XIAP; assay: immunoprecipitation from MDP-treated THP1 lysates in 6 M urea buffer, western blot
Protocol: (§1) THP1 cells were treated with PBS or MDP (1 μg/ml, 30 min). Cells were lysed in 6M urea buffer and immunoprecipitated using indicated RIP2-ubiquitin, K63-linear ubiquitin chain bispecific or control antibodies.

[9] = target: T4, c-IAP1; assay: as above
Protocol: as §1

[10] = target: T4, c-IAP1; assay: IP from THP1 cells with or without MDP (1 ug/ml, 30 min), 6 M urea lysis; western blot c-IAP1; remark: listed apart in the source
Protocol: as §1

[11] = target: T5, XIAP; assay: IP from THP1 cells with or without MDP (1 ug/ml, 30 min), 6 M urea lysis; western blot XIAP
Protocol: as §1

[12] = target: T6, RIP1; assay: IP with K63-Lin from THP1 cells treated with PBS, TNF, MDP or LPS, 6 M urea lysis; western blot RIP1
T6 construct: also called non-ubiquitinated RIP1 (endogenous, human cell lines); RIPK1
T6 single chain: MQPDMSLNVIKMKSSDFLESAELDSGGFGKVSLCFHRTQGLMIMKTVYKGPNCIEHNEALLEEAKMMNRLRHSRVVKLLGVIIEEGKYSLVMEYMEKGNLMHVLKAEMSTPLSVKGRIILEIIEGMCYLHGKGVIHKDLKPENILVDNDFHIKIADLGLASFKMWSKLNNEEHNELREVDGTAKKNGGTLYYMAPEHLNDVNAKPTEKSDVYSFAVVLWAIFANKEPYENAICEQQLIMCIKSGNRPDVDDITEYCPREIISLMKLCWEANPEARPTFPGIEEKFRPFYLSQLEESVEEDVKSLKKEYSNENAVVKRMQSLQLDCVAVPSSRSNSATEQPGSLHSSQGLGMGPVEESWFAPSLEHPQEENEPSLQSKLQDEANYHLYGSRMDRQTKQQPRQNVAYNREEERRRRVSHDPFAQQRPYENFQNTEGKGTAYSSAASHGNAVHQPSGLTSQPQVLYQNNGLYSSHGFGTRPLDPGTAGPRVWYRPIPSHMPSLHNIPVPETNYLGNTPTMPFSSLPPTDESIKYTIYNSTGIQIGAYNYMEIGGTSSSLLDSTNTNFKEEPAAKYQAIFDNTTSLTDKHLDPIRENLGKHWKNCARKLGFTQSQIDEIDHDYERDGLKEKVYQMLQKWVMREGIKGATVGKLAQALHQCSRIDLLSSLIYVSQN

Measured: binding result

RIP3, sequence (chain, as listed by the source limits assumed): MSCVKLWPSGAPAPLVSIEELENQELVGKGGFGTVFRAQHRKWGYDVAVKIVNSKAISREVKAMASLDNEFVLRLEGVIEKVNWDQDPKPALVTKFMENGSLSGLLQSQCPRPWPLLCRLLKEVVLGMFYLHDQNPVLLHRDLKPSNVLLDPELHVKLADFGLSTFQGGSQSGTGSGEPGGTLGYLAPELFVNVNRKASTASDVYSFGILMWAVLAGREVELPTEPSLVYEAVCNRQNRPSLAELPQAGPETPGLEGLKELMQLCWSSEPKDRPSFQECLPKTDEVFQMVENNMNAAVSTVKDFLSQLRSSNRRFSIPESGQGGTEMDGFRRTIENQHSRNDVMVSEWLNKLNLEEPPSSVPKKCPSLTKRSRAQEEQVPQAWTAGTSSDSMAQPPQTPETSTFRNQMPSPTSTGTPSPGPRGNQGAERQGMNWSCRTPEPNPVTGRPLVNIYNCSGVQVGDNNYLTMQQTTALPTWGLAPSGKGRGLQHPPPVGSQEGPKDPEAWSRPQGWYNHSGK
T1 sequence (O43353 whole entry): as the sequence (chain, as listed by the source limits assumed, chain 1 of 2, other chains not shown) above

B1: anti-RIP1/anti-K63 bispecific antibody (bispecific antibody, human IgG1, kappa)
heavy 1: not shown
light 1: DIQMTQSPSSLSASVGDRVTITCRASQSVSSAVAWYQQKPGEAPKLLIYSARSLYSGVPSRFSGSRSGTDFTLTISSLQPEDFATYYCQQYSSYSSLFTFGQGTKVEIKRTVAAPSVFIFPPSDEQLKSGTASVVCLLNNFYPREAKVQWKVDNALQSGNSQESVTEQDSKDSTYSLSSTLTLSKADYEKHKVYACEVTHQGLSSPVTKSFNRGEC
heavy 2: not shown
light 2: NIMMTQSPSSLAVSAGQKVTMNCKSSQNVIYTSNQRNYLAWYQQKPGQSPKLLIYWASTRVSGVPDRFTGSGSGTDFTLTISSVEVEDLAVYYCHQYLSSWTFGGGTKVEIKRTVAAPSVFIFPPSDEQLKSGTASVVCLLNNFYPREAKVQWKVDNALQSGNSQESVTEQDSKDSTYSLSSTLTLSKADYEKHKVYACEVTHQGLSSPVTKSFNRGEC
notes: also called RIP1-K63; RIP1-K63 ubiquitin chain bispecific antibody
no binding: [1] | [2] | [3] | [4]

B2: anti-RIP2/anti-K63 bispecific antibody (bispecific antibody, human IgG1, kappa)
heavy 1: not shown
light 1: DIQMTQSPSSLSASVGDRVTITCRASQSVSSAVAWYQQKPGEAPKLLIYSARSLYSGVPSRFSGSRSGTDFTLTISSLQPEDFATYYCQQYSSYSSLFTFGQGTKVEIKRTVAAPSVFIFPPSDEQLKSGTASVVCLLNNFYPREAKVQWKVDNALQSGNSQESVTEQDSKDSTYSLSSTLTLSKADYEKHKVYACEVTHQGLSSPVTKSFNRGEC
heavy 2: not shown
light 2: not shown
notes: also called RIP2-K63
no binding: [5] | [6]

B3: anti-RIP1/anti-M1 bispecific antibody (bispecific antibody, human IgG1, kappa)
heavy 1: not shown
light 1: DIQMTQSPSSLSASVGDRVTITCRASQDVSTAVAWYQQKPGKAPKLLIYSAKFLYSGVPSRFSGSGSGTDFTLTISSLQPEDFATYYCQQSYTTPPTFGQGTKVEIKRTVAAPSVFIFPPSDEQLKSGTASVVCLLNNFYPREAKVQWKVDNALQSGNSQESVTEQDSKDSTYSLSSTLTLSKADYEKHKVYACEVTHQGLSSPVTKSFNRGEC
heavy 2: not shown
light 2: NIMMTQSPSSLAVSAGQKVTMNCKSSQNVIYTSNQRNYLAWYQQKPGQSPKLLIYWASTRVSGVPDRFTGSGSGTDFTLTISSVEVEDLAVYYCHQYLSSWTFGGGTKVEIKRTVAAPSVFIFPPSDEQLKSGTASVVCLLNNFYPREAKVQWKVDNALQSGNSQESVTEQDSKDSTYSLSSTLTLSKADYEKHKVYACEVTHQGLSSPVTKSFNRGEC
notes: also called RIP1-Lin; RIP1-Lin ubiquitin chain bispecific antibody
no binding: [7] | [2] | [3]

B4: anti-RIP2/anti-M1 bispecific antibody (bispecific antibody, human IgG1, kappa)
heavy 1: not shown
light 1: DIQMTQSPSSLSASVGDRVTITCRASQDVSTAVAWYQQKPGKAPKLLIYSAKFLYSGVPSRFSGSGSGTDFTLTISSLQPEDFATYYCQQSYTTPPTFGQGTKVEIKRTVAAPSVFIFPPSDEQLKSGTASVVCLLNNFYPREAKVQWKVDNALQSGNSQESVTEQDSKDSTYSLSSTLTLSKADYEKHKVYACEVTHQGLSSPVTKSFNRGEC
heavy 2: not shown
light 2: not shown
notes: also called RIP2-Lin
no binding: [8] | [9]

B5: anti-M1/anti-K63 bispecific antibody (bispecific antibody, V domains shown)
VH 1: EVQLVESGGGLVQPGGSLRLSCAASGFNVKTGLIHWVRQAPGKGLEWVAYITPYYGSTSYADSVKGRFTISADTSKNTAYLQMNSLRAEDTAVYYCAREYYRWYTAIDYWGQGTLVTVSS
VL 1: DIQMTQSPSSLSASVGDRVTITCRASQSVSSAVAWYQQKPGEAPKLLIYSARSLYSGVPSRFSGSRSGTDFTLTISSLQPEDFATYYCQQYSSYSSLFTFGQGTKVEIK
VH 2: EVQLVESGGGLVQPGGSLRLSCAASGFTFSNTYISWVRQAPGKGLEWVASITPSSGQTDYADSVKGRFTISADTSKNTAYLQMNSLRAEDTAVYYCARTWLLRWVMDLWGQGTLVTVSS
VL 2: DIQMTQSPSSLSASVGDRVTITCRASQDVSTAVAWYQQKPGKAPKLLIYSAKFLYSGVPSRFSGSGSGTDFTLTISSLQPEDFATYYCQQSYTTPPTFGQGTKVEIK
notes: also called K63-Lin; K63-linear ubiquitin chain bispecific antibody
no binding: [7] | [10] | [11] | [12]
